“And” between values parts separate entries of the source, which are not always exact repeats. Equal entries are not always repeated.
Target: the molecule itself
Experiment: cross-linking

B1: MISO-Flag (human C3orf33, long isoform), in U2OS cells (natural protein, UniProt Q6P1S2 1-294, looked up)
chain: MAGQPAATGSPSADKDGMEPNVVARISQWADDHLRLVRNISTGMAIAGIMLLLRSIRLTSKFTSSSDIPVEFIRRNVKLRGRLRRITENGLEIEHIPITLPIIASLRKEPRGALLVKLAGVELAETGKAWLQKELKPSQLLWFQLLGKENSALFCYLLVSKGGYFSVNLNEEILRRGLGKTVLVKGLKYDSKIYWTVHRNLLKAELTALKKGEGIWKEDSEKESYLEKFKDSWREIWKKDSFLKTTGSDFSLKKESYYEKLKRTYEIWKDNMNNCSLILKFRELISRINFRRKG
Question: Which “stoichiometry N” value does the source give for B1 here?
Answer: Its value is 2 and 3.

From doi:10.1101/2025.01.05.631328 (bioRxiv, 2025)
